The target in the test is glutathione S-transferase fusion from pGEX-6P1 possessing a C-terminal optimized tetracysteine motif (GST-TC12). As to the kind of experiment: SEC; Superdex 75 Increase 10/300, 50 mM Tris pH 7.5, 150 mM NaCl; quenched one-pot ligation mixtures (Ub or SUMO, SrtCrAsH, eSrtA, GST-TC12); peaks collected and analysed by ESI-MS. A general note: In gel filtration, larger molecules generally elute earlier.

glutathione S-transferase fusion from pGEX-6P1 possessing a C-terminal optimized tetracysteine motif (GST-TC12), sequence (P08515 2-218): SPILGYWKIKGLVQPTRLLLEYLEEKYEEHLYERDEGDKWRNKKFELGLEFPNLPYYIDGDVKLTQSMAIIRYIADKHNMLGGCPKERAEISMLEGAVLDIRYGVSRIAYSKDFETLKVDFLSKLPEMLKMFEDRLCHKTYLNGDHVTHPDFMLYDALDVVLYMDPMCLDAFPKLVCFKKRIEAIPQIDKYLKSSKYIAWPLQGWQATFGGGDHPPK

As for “glutathione S-transferase fusion from pGEX-6P1 possessing a C-terminal optimized tetracysteine motif (GST-TC12) (natural protein)”, the stoichiometry N (as a rule, a count of units in the complex or per binding partner) was determined as 2.

These data come from article PMC11561763.
